Here are results for 20 molecules from patent publication US20180155451A1 (published 2018).

B1: GpH7-A5/GpH7-B3 variant D270_01G/GpL16-k0 (antibody, human IgG1, kappa)
heavy 1: not shown
heavy 2: not shown
light: DIVMTQSPLSLPVTPGEPASISCQASESLVHSNRNTYLHWYLQKPGQSPQLLIYKVSNRFSGVPDRFSGSGSGTDFTLKISRVEAEDVGVYYCSQNTHVPPTFGQGTKVEIERTVAAPSVFIFPPSDEQLKSGTASVVCLLNNFYPREAKVQWKVDNALQSGNSQESVTEQDSKDSTYSLSSTLTLSKADYEKHKVYACEVTHQGLSSPVTKSFNRGEC
notes: heterodimerized anti-glypican-3 IgG1; alteration in the GpH7-B3 chain only; also called He Ab
B2: GpH7-A5/GpH7-B3 variant A327_03V/GpL16-k0 (antibody, human IgG1, kappa)
heavy 1: not shown
heavy 2: not shown
light: B1 light
notes: as for B1
B3: GpH7-A5/GpH7-B3 variant A327_06M/GpL16-k0 (antibody, human IgG1, kappa)
heavy 1: not shown
heavy 2: not shown
light: B1 light
notes: as for B1
B4: GpH7-A5/GpH7-B3 variant Q295_09D/GpL16-k0 (antibody, human IgG1, kappa)
heavy 1: not shown
heavy 2: not shown
light: B1 light
notes: He Ab: mutation only in the GpH7-B3 H chain; EU numbering; also called He Ab
B5: GpH7-A5/GpH7-B3 variant S298_15Y/GpL16-k0 (antibody, human IgG1, kappa)
heavy 1: not shown
heavy 2: not shown
light: B1 light
notes: as for B4
B6: GpH7-A5/GpH7-B3 variant S298_07I/GpL16-k0 (antibody, human IgG1, kappa)
heavy 1: not shown
heavy 2: not shown
light: B1 light
notes: as for B4
B7: GpH7-A5/GpH7-B3 variant S298_12R/GpL16-k0 (antibody, human IgG1, kappa)
heavy 1: not shown
heavy 2: not shown
light: B1 light
notes: as for B4
B8: GpH7-A5/GpH7-B3 variant Q295_16H/GpL16-k0 (antibody, human IgG1, kappa)
heavy 1: not shown
heavy 2: not shown
light: B1 light
notes: as for B4
B9: GpH7-A5/GpH7-B3 variant Y296_03V/GpL16-k0 (antibody, human IgG1, kappa)
heavy 1: not shown
heavy 2: not shown
light: B1 light
notes: as for B4
B10: GpH7-A5/GpH7-B3 variant Y296_11K/GpL16-k0 (antibody, human IgG1, kappa)
heavy 1: not shown
heavy 2: not shown
light: B1 light
notes: as for B4
B11: GpH7-A5/GpH7-B3 variant Y296_08L/GpL16-k0 (antibody, human IgG1, kappa)
heavy 1: not shown
heavy 2: not shown
light: B1 light
notes: as for B4
B12: GpH7-A5/GpH7-B3 variant Y296_14T/GpL16-k0 (antibody, human IgG1, kappa)
heavy 1: not shown
heavy 2: not shown
light: B1 light
notes: as for B4
B13: GpH7-A5/GpH7-B3 variant S298_14T/GpL16-k0 (antibody, human IgG1, kappa)
heavy 1: not shown
heavy 2: not shown
light: B1 light
notes: as for B4
B14: GpH7-A5/GpH7-B3 variant Q295_10E/GpL16-k0 (antibody, human IgG1, kappa)
heavy 1: not shown
heavy 2: not shown
light: B1 light
notes: as for B4
B15: GpH7-A5/GpH7-B3 variant Y296_04F/GpL16-k0 (antibody, human IgG1, kappa)
heavy 1: not shown
heavy 2: not shown
light: B1 light
notes: as for B4
B16: GpH7-A5/GpH7-B3 variant Y296_18N/GpL16-k0 (antibody, human IgG1, kappa)
heavy 1: not shown
heavy 2: not shown
light: B1 light
notes: as for B4
B17: GpH7-A5/GpH7-B3 variant Q295_12R/GpL16-k0 (antibody, human IgG1, kappa)
heavy 1: not shown
heavy 2: not shown
light: B1 light
notes: as for B4
B18: GpH7-A5/GpH7-B3 variant S298_02A/GpL16-k0 (antibody, human IgG1, kappa)
heavy 1: not shown
heavy 2: not shown
light: B1 light
notes: as for B4
B19: GpH7-A5/GpH7-B3 variant S298_04F/GpL16-k0 (antibody, human IgG1, kappa)
heavy 1: not shown
heavy 2: not shown
light: B1 light
notes: as for B4
B20: GpH7-A5/GpH7-B3 variant S298_10E/GpL16-k0 (antibody, human IgG1, kappa)
heavy 1: not shown
heavy 2: not shown
light: B1 light
notes: as for B4

T2 sequence (P12314 16-292): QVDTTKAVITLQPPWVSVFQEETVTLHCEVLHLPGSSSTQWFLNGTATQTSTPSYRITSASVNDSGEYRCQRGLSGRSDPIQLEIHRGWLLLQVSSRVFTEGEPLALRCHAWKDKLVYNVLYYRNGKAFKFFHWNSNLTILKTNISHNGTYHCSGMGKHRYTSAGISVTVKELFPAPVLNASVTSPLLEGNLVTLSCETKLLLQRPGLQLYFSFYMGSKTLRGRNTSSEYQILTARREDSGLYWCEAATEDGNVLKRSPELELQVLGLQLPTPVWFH
T4 sequence (P12314 16-292): as above

In the first experiment the target is T1, FcγRIIb extracellular domain with C-terminal His tag (human, UniProt P31994 43-217).
T1 construct: extracellular domain; soluble receptor expressed in FreeStyle293 cells, used as analyte in Biacore; also called FcgRIIb; 2b; not shown: His tag attached to the C terminus
T1 sequence (looked up): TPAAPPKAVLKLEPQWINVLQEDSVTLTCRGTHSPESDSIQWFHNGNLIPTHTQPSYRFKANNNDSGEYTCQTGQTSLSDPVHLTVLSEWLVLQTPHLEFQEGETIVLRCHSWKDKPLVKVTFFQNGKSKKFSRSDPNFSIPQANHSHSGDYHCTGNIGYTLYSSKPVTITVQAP
Kind of experiment: SPR (Biacore), antibody captured on antigen peptide chip, FcγR as analyte; relative binding. In general terms: Surface plasmon resonance follows binding to a sensor surface in real time, without labels.
As to B1, the He/Con_2b was 30.5 % of control GpH7-A5/GpH7-B3/GpL16-k0 (=100).

For B2, the He/Con_2b is 94.7 % of control GpH7-A5/GpH7-B3/GpL16-k0 (=100).

Take B3: the He/Con_2b was 59.5 % of control GpH7-A5/GpH7-B3/GpL16-k0 (=100).

A further experiment addresses T2, FcγRIa extracellular domain with C-terminal His tag (human, UniProt P12314 16-292).
T2 construct: extracellular domain; soluble receptor expressed in FreeStyle293 cells, used as analyte in Biacore; also called FcgRI; 1a; not shown: His tag attached to the C terminus
The description is as above.
Take B1: the He/Con_1a is 76.3 % of control GpH7-A5/GpH7-B3/GpL16-k0 (=100).

Take B2: the He/Con_1a was 103 % of control GpH7-A5/GpH7-B3/GpL16-k0 (=100).

As for B3, the He/Con_1a was 103 % of control GpH7-A5/GpH7-B3/GpL16-k0 (=100).

A further experiment addresses T3, FcγRIIb (human, UniProt P31994 43-217).
T3 construct: extracellular domain; also called FcgRIIb; 2b; not shown: His tag at the C terminus
T3 sequence (looked up): T1 sequence (looked up)
Kind of experiment: SPR (Biacore), captured antibody, soluble FcγR; relative to GpH7-A5/GpH7-B3/GpL16-k0.
On to B4, for which the He/Con_2b is 60.8 relative, HeCon Ab = 100.

Consider B5, for which the He/Con_2b was 61.4 relative, HeCon Ab = 100.

Take B6: the He/Con_2b was 70.6 relative, HeCon Ab = 100.

B7: the He/Con_2b is 57.8 relative, HeCon Ab = 100.

With B8, the He/Con_2b was 62.7 relative, HeCon Ab = 100.

In the case of B9, the He/Con_2b is 79.3 relative, HeCon Ab = 100.

For B10, the He/Con_2b is 72.8 relative, HeCon Ab = 100.

Take B11: the He/Con_2b is 82.3 relative, HeCon Ab = 100.

For the molecule B12, the He/Con_2b was 88.2 relative, HeCon Ab = 100.

For B13, the He/Con_2b was 77.9 relative, HeCon Ab = 100.

On to B14, for which the He/Con_2b is 94.8 relative, HeCon Ab = 100.

As to B15, the He/Con_2b was 99.2 relative, HeCon Ab = 100.

Take B16: the He/Con_2b is 91.5 relative, HeCon Ab = 100.

Consider B17, for which the He/Con_2b is 65.2 relative, HeCon Ab = 100.

Regarding B18, the He/Con_2b was 73.4 relative, HeCon Ab = 100.

As to B19, the He/Con_2b is 65.4 relative, HeCon Ab = 100.

As for B20, the He/Con_2b is 47.6 relative, HeCon Ab = 100.

A further experiment concerns the target T4, FcγRIa (human, UniProt P12314 16-292).
T4 construct: extracellular domain; also called FcgRI; 1a; not shown: His tag at the C terminus
The experiment is described as above.
Take B4: the He/Con_1a is 100 relative, HeCon Ab = 100.

B5: the He/Con_1a is 107 relative, HeCon Ab = 100.

Turning to B6, the He/Con_1a is 107 relative, HeCon Ab = 100.

In the case of B7, the He/Con_1a is 109 relative, HeCon Ab = 100.

In the case of B8, the He/Con_1a is 102 relative, HeCon Ab = 100.

With B9, the He/Con_1a is 104 relative, HeCon Ab = 100.

For the molecule B10, the He/Con_1a was 105 relative, HeCon Ab = 100.

Turning to B11, the He/Con_1a is 104 relative, HeCon Ab = 100.

For the molecule B12, the He/Con_1a was 105 relative, HeCon Ab = 100.

Consider B13, for which the He/Con_1a is 107 relative, HeCon Ab = 100.

For B14, the He/Con_1a is 103 relative, HeCon Ab = 100.

On to B15, for which the He/Con_1a was 104 relative, HeCon Ab = 100.

On to B16, for which the He/Con_1a was 106 relative, HeCon Ab = 100.

For B17, the He/Con_1a was 100 relative, HeCon Ab = 100.

With B18, the He/Con_1a was 107 relative, HeCon Ab = 100.

Regarding B19, the He/Con_1a was 109 relative, HeCon Ab = 100.

Consider B20, for which the He/Con_1a was 108 relative, HeCon Ab = 100.
